The test system of this series is Escherichia coli TOP10. The series is described as follows: shrunken log2 fold change of peptide-encoding DNA abundance (4.5 h post-induction vs induction); higher = less antimicrobial activity (less host growth inhibition). The following applies: time post-induction: 4.5 h; library: site-saturation at positions 5, 18, 19, 20.
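Note: peptides expressed intracellularly from a pBAD plasmid library in pooled LB shake-flask culture, induced with 0.3% L-arabinose, DNA abundance read by NGS, three biological replicates, DESeq2 with apeglm shrinkage.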

For the sequence RRIRTRPPRLPRPRPRPAPQPRP, the “shrunken log2 fold change” value came to 0.0544.

On to RRIRGRPPRLPRPRPRPGMPPRP, for which the “shrunken log2 fold change” value was found to be 0.406.

Turning to RRIRYRPPRLPRPRPRPPKCPRP, the “shrunken log2 fold change” value was -0.813.

With RRIRLRPPRLPRPRPRPCKPPRP, the “shrunken log2 fold change” value is -0.1.

Regarding RRIRRRPPRLPRPRPRPDNIPRP, the “shrunken log2 fold change” value was 0.123.

Consider RRIRYRPPRLPRPRPRPFMVPRP, for which the “shrunken log2 fold change” value was -1.05.

With RRIRKRPPRLPRPRPRPRWPPRP, the “shrunken log2 fold change” value came to 0.528.

As for RRIRQRPPRLPRPRPRPPHHPRP, the “shrunken log2 fold change” value came out at 0.972.

For RRIRKRPPRLPRPRPRPEDTPRP, the “shrunken log2 fold change” value came to 0.103.

As for RRIRTRPPRLPRPRPRPNQIPRP, the “shrunken log2 fold change” value is -0.469.

With RRIRRRPPRLPRPRPRPYAKPRP, the “shrunken log2 fold change” value was found to be 0.106.

With RRIRPRPPRLPRPRPRPMSTPRP, the “shrunken log2 fold change” value is -0.229.

On to RRIRDRPPRLPRPRPRPLYQPRP, for which the “shrunken log2 fold change” value is -0.0432.

RRIRFRPPRLPRPRPRPSQNPRP: the “shrunken log2 fold change” value was -0.22.

For the sequence RRIRVRPPRLPRPRPRPKIAPRP, the “shrunken log2 fold change” value is 0.0892.

Consider RRIRARPPRLPRPRPRPWAYPRP, for which the “shrunken log2 fold change” value was -0.0297.

As for RRIRLRPPRLPRPRPRPDCYPRP, the “shrunken log2 fold change” value was -0.558.

On to RRIRARPPRLPRPRPRPFGEPRP, for which the “shrunken log2 fold change” value was determined as 0.15.

For the sequence RRIRLRPPRLPRPRPRPHMTPRP, the “shrunken log2 fold change” value was -0.466.

With RRIRVRPPRLPRPRPRPFMTPRP, the “shrunken log2 fold change” value was 0.127.

As to RRIRMRPPRLPRPRPRPNIFPRP, the “shrunken log2 fold change” value was -0.0848.

Turning to RRIRSRPPRLPRPRPRPDECPRP, the “shrunken log2 fold change” value was 0.0932.

Consider RRIRGRPPRLPRPRPRPYDYPRP, for which the “shrunken log2 fold change” value is -0.15.

Regarding RRIRPRPPRLPRPRPRPVFYPRP, the “shrunken log2 fold change” value is -0.316.

Turning to RRIRRRPPRLPRPRPRPLVKPRP, the “shrunken log2 fold change” value is -0.179.

As for RRIRRRPPRLPRPRPRPHYHPRP, the “shrunken log2 fold change” value is -0.35.

Turning to RRIRWRPPRLPRPRPRPHRPPRP, the “shrunken log2 fold change” value was -0.135.

As for RRIRRRPPRLPRPRPRPCCDPRP, the “shrunken log2 fold change” value came to 0.583.

Take RRIRRRPPRLPRPRPRPELRPRP: the “shrunken log2 fold change” value came out at 0.463.

As for RRIRFRPPRLPRPRPRPMPGPRP, the “shrunken log2 fold change” value is -0.0263.

For RRIRDRPPRLPRPRPRPPEHPRP, the “shrunken log2 fold change” value is -0.0245.

For the sequence RRIRGRPPRLPRPRPRPPERPRP, the “shrunken log2 fold change” value came out at 1.02.

As to RRIRWRPPRLPRPRPRPNCKPRP, the “shrunken log2 fold change” value was -0.0223.

Take RRIRWRPPRLPRPRPRPACFPRP: the “shrunken log2 fold change” value amounted to 0.513.

Consider RRIRVRPPRLPRPRPRPMYVPRP, for which the “shrunken log2 fold change” value came to 3.48.

As for RRIRHRPPRLPRPRPRPVASPRP, the “shrunken log2 fold change” value was -0.122.

Regarding RRIRNRPPRLPRPRPRPTWRPRP, the “shrunken log2 fold change” value was 0.421.

With RRIRIRPPRLPRPRPRPLCRPRP, the “shrunken log2 fold change” value is -0.289.

For RRIRKRPPRLPRPRPRPFYFPRP, the “shrunken log2 fold change” value was 0.00515.

Turning to RRIRDRPPRLPRPRPRPWFAPRP, the “shrunken log2 fold change” value is -0.0921.

Regarding RRIRVRPPRLPRPRPRPWDDPRP, the “shrunken log2 fold change” value was -0.27.

As for RRIRRRPPRLPRPRPRPAWTPRP, the “shrunken log2 fold change” value amounted to 1.74.

On to RRIRWRPPRLPRPRPRPRGGPRP, for which the “shrunken log2 fold change” value came out at 0.984.

Regarding RRIRIRPPRLPRPRPRPSSSPRP, the “shrunken log2 fold change” value is 0.148.

With RRIRIRPPRLPRPRPRPYCMPRP, the “shrunken log2 fold change” value was -1.34.

Turning to RRIRQRPPRLPRPRPRPNSSPRP, the “shrunken log2 fold change” value was -1.14.

Turning to RRIRLRPPRLPRPRPRPLWLPRP, the “shrunken log2 fold change” value was -0.0303.

Take RRIRQRPPRLPRPRPRPMQKPRP: the “shrunken log2 fold change” value amounted to 0.0524.

With RRIRKRPPRLPRPRPRPSYQPRP, the “shrunken log2 fold change” value was -0.52.

As to RRIRNRPPRLPRPRPRPGISPRP, the “shrunken log2 fold change” value turned out to be 0.0154.

Turning to RRIRGRPPRLPRPRPRPAQSPRP, the “shrunken log2 fold change” value turned out to be 0.723.

RRIRYRPPRLPRPRPRPQKMPRP: the “shrunken log2 fold change” value is -0.295.

For the sequence RRIRCRPPRLPRPRPRPMARPRP, the “shrunken log2 fold change” value is 0.352.

Regarding RRIRKRPPRLPRPRPRPMKTPRP, the “shrunken log2 fold change” value worked out at 0.0431.

Regarding RRIRTRPPRLPRPRPRPTVCPRP, the “shrunken log2 fold change” value was -0.509.

For RRIRGRPPRLPRPRPRPLYSPRP, the “shrunken log2 fold change” value is 0.225.

Turning to RRIRVRPPRLPRPRPRPEEKPRP, the “shrunken log2 fold change” value was -0.0261.

Turning to RRIRMRPPRLPRPRPRPSFVPRP, the “shrunken log2 fold change” value was -0.0144.

As to RRIRQRPPRLPRPRPRPCERPRP, the “shrunken log2 fold change” value is -0.0133.

Consider RRIRQRPPRLPRPRPRPIEFPRP, for which the “shrunken log2 fold change” value was -1.79.

Turning to RRIRCRPPRLPRPRPRPNDLPRP, the “shrunken log2 fold change” value was determined as 0.0432.

In the case of RRIRARPPRLPRPRPRPFLKPRP, the “shrunken log2 fold change” value was -0.349.

Turning to RRIRLRPPRLPRPRPRPVLCPRP, the “shrunken log2 fold change” value stood at 0.168.

Turning to RRIRIRPPRLPRPRPRPHKSPRP, the “shrunken log2 fold change” value is -1.18.

Turning to RRIRQRPPRLPRPRPRPCQFPRP, the “shrunken log2 fold change” value came to 0.0287.

As to RRIRPRPPRLPRPRPRPCTIPRP, the “shrunken log2 fold change” value is -0.536.

With RRIRQRPPRLPRPRPRPAWWPRP, the “shrunken log2 fold change” value worked out at 0.95.

Take RRIRFRPPRLPRPRPRPVFEPRP: the “shrunken log2 fold change” value is -0.0387.

With RRIRCRPPRLPRPRPRPSGHPRP, the “shrunken log2 fold change” value is -0.422.

With RRIRMRPPRLPRPRPRPFLHPRP, the “shrunken log2 fold change” value is -0.0137.

With RRIRVRPPRLPRPRPRPDIHPRP, the “shrunken log2 fold change” value is -0.427.

In the case of RRIRKRPPRLPRPRPRPERYPRP, the “shrunken log2 fold change” value was -0.0119.

As for RRIRPRPPRLPRPRPRPFESPRP, the “shrunken log2 fold change” value is 0.17.

On to RRIRIRPPRLPRPRPRPVIGPRP, for which the “shrunken log2 fold change” value is -0.727.

For the sequence RRIRSRPPRLPRPRPRPCMSPRP, the “shrunken log2 fold change” value is -0.348.

As for RRIRIRPPRLPRPRPRPVDGPRP, the “shrunken log2 fold change” value was -0.169.

On to RRIRFRPPRLPRPRPRPVGAPRP, for which the “shrunken log2 fold change” value amounted to 0.472.

RRIRLRPPRLPRPRPRPQWNPRP: the “shrunken log2 fold change” value is -0.289.

With RRIRHRPPRLPRPRPRPPAFPRP, the “shrunken log2 fold change” value worked out at 0.0237.

For the sequence RRIRSRPPRLPRPRPRPIKNPRP, the “shrunken log2 fold change” value is -0.399.

With RRIRCRPPRLPRPRPRPKHTPRP, the “shrunken log2 fold change” value was -0.0232.

In the case of RRIRCRPPRLPRPRPRPFILPRP, the “shrunken log2 fold change” value was -0.898.

For RRIRSRPPRLPRPRPRPGFKPRP, the “shrunken log2 fold change” value came out at 0.122.

In the case of RRIRSRPPRLPRPRPRPRYEPRP, the “shrunken log2 fold change” value is -0.12.

As to RRIRKRPPRLPRPRPRPMAEPRP, the “shrunken log2 fold change” value was 0.208.

RRIRVRPPRLPRPRPRPNCSPRP: the “shrunken log2 fold change” value was determined as 0.0892.

For the sequence RRIRGRPPRLPRPRPRPDNCPRP, the “shrunken log2 fold change” value is -0.0626.

RRIRYRPPRLPRPRPRPDIWPRP: the “shrunken log2 fold change” value was -0.00585.

For RRIRARPPRLPRPRPRPSLAPRP, the “shrunken log2 fold change” value was determined as 0.54.

With RRIRIRPPRLPRPRPRPLAEPRP, the “shrunken log2 fold change” value was -0.129.

On to RRIRTRPPRLPRPRPRPACRPRP, for which the “shrunken log2 fold change” value was found to be 0.206.

RRIRNRPPRLPRPRPRPWVQPRP: the “shrunken log2 fold change” value worked out at 0.00853.

In the case of RRIRGRPPRLPRPRPRPKDSPRP, the “shrunken log2 fold change” value was found to be 0.244.

Regarding RRIRVRPPRLPRPRPRPRYEPRP, the “shrunken log2 fold change” value was -0.273.

As to RRIRWRPPRLPRPRPRPKILPRP, the “shrunken log2 fold change” value was -0.0469.

With RRIRPRPPRLPRPRPRPGTKPRP, the “shrunken log2 fold change” value worked out at 0.453.

Take RRIRMRPPRLPRPRPRPCCAPRP: the “shrunken log2 fold change” value is 0.78.

For RRIRGRPPRLPRPRPRPEQKPRP, the “shrunken log2 fold change” value is 0.105.

As to RRIRTRPPRLPRPRPRPMGKPRP, the “shrunken log2 fold change” value was found to be 0.0179.

With RRIRKRPPRLPRPRPRPNEVPRP, the “shrunken log2 fold change” value was -0.152.

Regarding RRIRRRPPRLPRPRPRPNRFPRP, the “shrunken log2 fold change” value worked out at 0.156.

Take RRIRERPPRLPRPRPRPHPKPRP: the “shrunken log2 fold change” value was determined as 0.0177.

As to RRIRCRPPRLPRPRPRPACDPRP, the “shrunken log2 fold change” value amounted to 0.389.

With RRIRARPPRLPRPRPRPPCGPRP, the “shrunken log2 fold change” value worked out at 0.443.

Regarding RRIRKRPPRLPRPRPRPEESPRP, the “shrunken log2 fold change” value was found to be 0.0563.

As to RRIRCRPPRLPRPRPRPWMHPRP, the “shrunken log2 fold change” value is -0.621.

Take RRIRFRPPRLPRPRPRPYRTPRP: the “shrunken log2 fold change” value is -0.165.

In the case of RRIRSRPPRLPRPRPRPIKFPRP, the “shrunken log2 fold change” value is -0.0229.

As to RRIRFRPPRLPRPRPRPSHDPRP, the “shrunken log2 fold change” value is -0.142.

Take RRIRQRPPRLPRPRPRPLAWPRP: the “shrunken log2 fold change” value was determined as 0.15.

For the sequence RRIRCRPPRLPRPRPRPQWDPRP, the “shrunken log2 fold change” value is -0.0642.

On to RRIRIRPPRLPRPRPRPAHPPRP, for which the “shrunken log2 fold change” value worked out at 0.239.

Take RRIRERPPRLPRPRPRPISRPRP: the “shrunken log2 fold change” value is -0.0122.

Turning to RRIRIRPPRLPRPRPRPPADPRP, the “shrunken log2 fold change” value was 0.271.

As for RRIRNRPPRLPRPRPRPNFFPRP, the “shrunken log2 fold change” value stood at 0.0771.

For the sequence RRIRPRPPRLPRPRPRPDQIPRP, the “shrunken log2 fold change” value was -0.265.

Regarding RRIRLRPPRLPRPRPRPLHMPRP, the “shrunken log2 fold change” value was -0.112.

Take RRIRYRPPRLPRPRPRPESAPRP: the “shrunken log2 fold change” value was -0.146.

RRIRNRPPRLPRPRPRPLSLPRP: the “shrunken log2 fold change” value was -0.291.

In the case of RRIRYRPPRLPRPRPRPGYKPRP, the “shrunken log2 fold change” value was -0.978.

With RRIRCRPPRLPRPRPRPTQNPRP, the “shrunken log2 fold change” value worked out at 0.803.

RRIRNRPPRLPRPRPRPINCPRP: the “shrunken log2 fold change” value is 0.00363.

In the case of RRIRTRPPRLPRPRPRPDFWPRP, the “shrunken log2 fold change” value was 0.413.

Take RRIRGRPPRLPRPRPRPLCPPRP: the “shrunken log2 fold change” value was determined as 0.422.

For the sequence RRIRNRPPRLPRPRPRPEQWPRP, the “shrunken log2 fold change” value was -0.0114.

These data come from the supplement of paper PMC9112550, “Optimization of the antimicrobial peptide Bac7 by deep mutational scanning” (BMC Biology, 2022).
